Results from patent US20230250157A1 (published 2023).

Columns and labels:
Assay in all cases: ELISA
SARS-CoV-2 Beta RBD = SARS-CoV-2 Beta RBD (SARS-CoV-2 Beta)
[1] = target: SARS-CoV-2 Omicron BA.1 RBD (SARS-CoV-2 Omicron BA.1)
SARS-CoV-2 Delta RBD = SARS-CoV-2 Delta RBD (SARS-CoV-2 Delta)
[2] = target: SARS-CoV-2 Omicron BA.2 RBD (SARS-CoV-2 Omicron BA.2)

Measured: EC50

B1: M8a-15 (antibody, V domains shown)
VH: QVQLQQSGPELARPGASVKLSCRASGYTVTSFGLSWMKQRTGQGLEWIGEIYPTSKNTYYNDKFRTKATLTADKSSSTAYMELRSLTSEDSAVYFCVLYDYFDYWGQGTTLTVSS
VL: QIVLTQSPAIMSASPGEKVTISCSASSSVSYMYWYQQKTGSSPKPWIYRTSNLASGVPVRFSGSGSGTSYSLTISSMEAEDAATYYCQQYQSYPRTFGGGTKLEIK
> 10 µg/mL: all assays above

B2: M8a-29 (antibody, V domains shown)
VH: EVQLQQSVAELVRPGASVKLSCTASGFNIKNTYMHWVKQRPEQGLEWIGRIDPSIDHTRYAPKFQGKAVITAFTSSNTAYLQLSSLTSEDTAIYYCAREGGGNYPYYYAIDYWGQGTSVTVSS
VL: DIVMTQAAFSNPVTLGTSASISCRSTKSLLHSNGITYLYWYLQKPGQSPQLLIYQMSNLASGVPDRFSSSGSGTDFTLRISRVEAEDVGVYYCAQNLELPYTFGGGTKLEIK
> 10 µg/mL: all assays above

B3: M8a-25 (antibody, V domains shown)
VH: EVQLQQSVAELVRPGASVKLSCTASGFNIKNTYMHWVKQRPEQGLEWIGRIDPSIDHTRYAPKFQGKAVITAFTSSNTAYLQLSSLTSEDTAIYYCAREGGGNYPYYYAIDYWGQGTSVTVSS
VL: DIQMTQSSSSFSVSLGDRVTITCKASEDIYIRLAWYQQRPGNAPRLLISNAISLETGVPSRFSGSGFGKDHTLSITSLQTEDVATYYCQQYWSTPWTFGGGTKLEIK
> 10 µg/mL: all assays above

B4: M8a-30 (antibody, V domains shown)
VH: QVHLQQSGPELVKPGASVKISCKASGYGFSSSWMNWVKQRPGKGLEWIGRIYPGDGDTNYNDKFQGKATLTADRSSSTAYMHLTSLTSADSAVYFCARSLLYSFDYWGQGTTLTVSS
VL: DVVVTQTPLSLPVSFGDQVSISCRSSQSLAGSYGHTYLSWYLHKSGQSPQLLIYGISNRFSGVPDRFSGSGSGTDFTLKISTIKPEDLGMYYCLQGTHQPLTFGAGTKLELK
> 10 µg/mL: SARS-CoV-2 Beta RBD | [1] | [2]

B5: M8a-11 (antibody, V domains shown)
VH: EVQLQQSGPELVKPGASVKIPCKASGYTFTDYNMDWVKQSHEKSLEWIGEIDPNNGDTIYNQKFKGKASLTVDKSSSTAYMELRSLTSEDTAVYYCAKRGYYGSSLWWYFDVWGTGTTVTVSS
VL: DIQMTQSSSSFSVSLGDRVTITCKASEDIYIRLAWYQQRPGNAPRLLISNAISLETGVPSRFSGSGSGKDYTLSITSLQTEDVATYYCQQYWSTPWTFGGGTKLEIK
> 10 µg/mL: all assays above

B6: M8a-7 (antibody, V domains shown)
VH: QAYLQQSGAEMVRPGASVKMSCKASGYTFNNYNMHWVKQTPSQGLEWIGGFYPGNDDTAYSQKFKGKATLTVDKSSSTAFMHLSSLTSEDSAVYFCARSLGRYYAMDYWGQGTSVTVSS
VL: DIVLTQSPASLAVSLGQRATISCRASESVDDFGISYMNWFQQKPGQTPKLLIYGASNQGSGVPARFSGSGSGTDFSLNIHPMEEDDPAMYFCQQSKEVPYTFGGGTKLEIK
> 10 µg/mL: all assays above
